Reference: the supplement of paper PMC5998384

Columns and labels:
[1] = tested on: HeLa Kyoto; experiment: solubility change mitosis vs G1/S (difference of NP-40 vs SDS log2 ratios) (log2 ratio difference); higher = more soluble in mitosis
[2] = tested on: HeLa Kyoto; experiment: solubility in G1/S (NP-40 vs SDS abundance) (log2 ratio); higher = more soluble; conditions: cell cycle stage: G1/S
[3] = tested on: HeLa Kyoto; experiment: melting temperature (median over replicates), in situ; higher = more thermally stable
[4] = tested on: HeLa Kyoto; experiment: thermal stability score vs G1/S (z-score of summed log2 fold changes over temperatures); higher = more thermally stable than in G1/S
[5] = cell cycle stage: early G1 (4.5 h after nocodazole release)
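Throughout, for melting temperature (median over replicates), in situ: HeLa Kyoto cells synchronized by double thymidine or nocodazole block, proteins quantified by TMT10plex mass spectrometry, three independent biological replicates.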
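Throughout, for solubility change mitosis vs G1/S (difference of NP-40 vs SDS log2 ratios): synchronized HeLa Kyoto cells (double thymidine block for G1/S, nocodazole release for mitosis), protein amounts in NP-40 versus SDS lysates quantified by mass spectrometry, three biological replicates.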
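Throughout, for solubility in G1/S (NP-40 vs SDS abundance): HeLa Kyoto cells arrested at G1/S by double thymidine block, proteins quantified by TMT10plex mass spectrometry in mild NP-40 versus SDS extracts, three biological replicates.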
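Throughout, for thermal stability score vs G1/S (z-score of summed log2 fold changes over temperatures): synchronized HeLa Kyoto cells, proteins quantified by TMT10plex mass spectrometry, three biological replicates, mitosis taken 0.5 h after nocodazole release, G1/S directly after double thymidine block.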

## MVQLYNLHPFGSQQVVPCKLEPDRFCGGGRDALFVAAGCKVEAFAVAGQELCQPRCAFSTLGRVLRLAYSEAGDYLVAIEEKNKATFLRAYVNWRNKRTENSRVCIRMIGHNVEGPFSKAFRDQMYIIEMPLSEAPLCISCCPVKGDLLVGCTNKLVLFSLKYQIINEEFSLLDFERSLIIHIDNITPVEVSFCVGYVAVMSDLEVLIVKLESGPKNGERVHHHPHKTNNRIRRTEEGISNEISQLESDDFVICQKPLELLGEKSEQSGLSVTLESTGLADEKRKYSHFQHLLYRRFAPDISSYVLSDDIKLHSLQLLPIYQTGSLTSDGKNLSQEKELLSLFCFFSLPHVGYLYMVVKSVELMSVYQYPEKSQQAVLTPQFLHVITSNNLQCFTVRCSAAAAREEDPYMDTTLKACPPVSMDVCALRIQLFIGLKAICHFKNHIILLTKAEPEAIPERRQSPKRLLSRKDTSVKIKIPPVAEAGWNLYIVNTISPVQLYKEMVDYSNTYKTVKTQSCIHLLSEAHLLVRAALMDASQLEPGEKAELLEAFKESCGHLGDCYSRLDSQHSHLTLPYYKMSGLSMAEVLARTDWTVEDGLQKYERGLIFYINHSLYENLDEELNEELAAKVVQMFYVAEPKQVPHILCSPSMKNINPLTAMSYLRKLDTSGFSSILVTLTKAAVALKMGDLDMHRNEMKSHSEMKLVCGFILEPRLLIQQRKGQIVPTELALHLKETQPGLLVASVLGLQKNNKIGIEEADSFFKVLCAKDEDTIPQLLVDFWEAQLVACLPDVVLQELFFKLTSQYIWRLSKRQPPDTTPLRTSEDLINACSHYGLIYPWVHVVISSDSLADKNYTEDLSKLQSLICGPSFDIASIIPFLEPLSEDTIAGLSVHVLCRTRLKEYEQCIDILLERCPEAVIPYANHELKEENRTLWWKKLLPELCQRIKCGGEKYQLYLSSLKETLSIVAVELELKDFMNVLPEDGTATFFLPYLLYCSRKKPLT [HPS3]
[1]
  solubility change mitosis (log2): -0.103
[2]
  solubility in G1/S (log2): -0.0533
[3]; cell cycle stage: G1/S
  melting temperature: 51.4 °C
[3]; cell cycle stage: mitosis
  melting temperature: 50.6 °C
[4]; [5]
  thermal stability score: 0.612
[4]; cell cycle stage: mitosis
  thermal stability score: 0.736

## MVSKMIIENFEALKSWLSKTLEPICDADPSALAKYVLALVKKDKSEKELKALCIDQLDVFLQKETQIFVEKLFDAVNTKSYLPPPEQPSSGSLKVEFFPHQEKDIKKEEITKEEEREKKFSRRLNHSPPQSSSRYRENRSRDERKKDDRSRKRDYDRNPPRRDSYRDRYNRRRGRSRSYSRSRSRSWSKERLRERDRDRSRTRSRSRTRSRERDLVKPKYDLDRTDPLENNYTPVSSVPSISSGHYPVPTLSSTITVIAPTHHGNNTTESWSEFHEDQVDHNSYVRPPMPKKRCRDYDEKGFCMRGDMCPFDHGSDPVVVEDVNLPGMLPFPAQPPVVEGPPPPGLPPPPPILTPPPVNLRPPVPPPGPLPPSLPPVTGPPPPLPPLQPSGMDAPPNSATSSVPTVVTTGIHHQPPPAPPSLFTADTYDTDGYNPEAPSITNTSRPMYRHRVHAQRPNLIGLTSGDMDLPPREKPPNKSSMRIVVDSESRKRTIGSGEPGVPTKKTWFDKPNFNRTNSPGFQKKVQFGNENTKLELRKVPPELNNISKLNEHFSRFGTLVNLQVAYNGDPEGALIQFATYEEAKKAISSTEAVLNNRFIKVYWHREGSTQQLQTTSPKVMQPLVQQPILPVVKQSVKERLGPVPSSTIEPAEAQSASSDLPQNVTKLSVKDRLGFVSKPSVSATEKVLSTSTGLTKTVYNPAALKAAQKTLLVSTSAVDNNEAQKKKQEALKLQQDVRKRKQEILEKHIETQKMLISKLEKNKTMKSEDKAEIMKTLEVLTKNITKLKDEVKAASPGRCLPKSIKTKTQMQKELLDTELDLYKKMQAGEEVTELRRKYTELQLEAAKRGILSSGRGRGIHSRGRGAVHGRGRGRGRGRGVPGHAVVDHRPRALEISAFTESDREDLLPHFAQYGEIEDCQIDDSSLHAVITFKTRAEAEAAAVHGARFKGQDLKLAWNKPVTNISAVETEEVEPDEEEFQEESLVDDSLLQDDDEEEEDNESRSWRR [RBM26]
[1]
  solubility change mitosis (log2): 0.0367
[2]
  solubility in G1/S (log2): -0.109
[3]; cell cycle stage: G1/S
  melting temperature: 47 °C
[3]; cell cycle stage: mitosis
  melting temperature: 48.9 °C
[4]; [5]
  thermal stability score: 1.92
[4]; cell cycle stage: mitosis
  thermal stability score: 4.06

## MVSRVQLPPEIQLAQRLAGNEQVTRDRAVRKLRKYIVARTQRAAGGFTHDELLKVWKGLFYCMWMQDKPLLQEELGRTISQLVHAFQTTEAQHLFLQAFWQTMNREWTGIDRLRLDKFYMLMRMVLNESLKVLKMQGWEERQIEELLELLMTEILHPSSQAPNGVKSHFIEIFLEELTKVGAEELTADQNLKFIDPFCRIAARTKDSLVLNNITRGIFETIVEQAPLAIEDLLNELDTQDEEVASDSDESSEGGERGDALSQKRSEKPPAGSICRAEPEAGEEQAGDDRDSGGPVLQFDYEAVANRLFEMASRQSTPSQNRKRLYKVIRKLQDLAGGIFPEDEIPEKACRRLLEGRRQKKTKKQKRLLRLQQERGKGEKEPPSPGMERKRSRRRGVGADPEARAEAGEQPGTAERALLRDQPRGRGQRGARQRRRTPRPLTSARAKAANVQEPEKKKKRRE [RRP1]
[1]
  solubility change mitosis (log2): 0.797
[2]
  solubility in G1/S (log2): -1.24
[3]; cell cycle stage: G1/S
  melting temperature: 46.6 °C
[3]; cell cycle stage: mitosis
  melting temperature: 48.8 °C
[4]; [5]
  thermal stability score: 2.67
[4]; cell cycle stage: mitosis
  thermal stability score: 7.98

## MVSWMICRLVVLVFGMLCPAYASYKAVKTKNIREYVRWMMYWIVFALFMAAEIVTDIFISWFPFYYEIKMAFVLWLLSPYTKGASLLYRKFVHPSLSRHEKEIDAYIVQAKERSYETVLSFGKRGLNIAASAAVQAATKSQGALAGRLRSFSMQDLRSISDAPAPAYHDPLYLEDQVSHRRPPIGYRAGGLQDSDTEDECWSDTEAVPRAPARPREKPLIRSQSLRVVKRKPPVREGTSRSLKVRTRKKTVPSDVDS [REEP4]
[1]
  solubility change mitosis (log2): -0.135
[2]
  solubility in G1/S (log2): 0.0372
[3]; cell cycle stage: G1/S
  melting temperature: 53.4 °C
[3]; cell cycle stage: mitosis
  melting temperature: 53.2 °C
[4]; [5]
  thermal stability score: -1.06
[4]; cell cycle stage: mitosis
  thermal stability score: -1.58

## MVSWMISRAVVLVFGMLYPAYYSYKAVKTKNVKEYVRWMMYWIVFALYTVIETVADQTVAWFPLYYELKIAFVIWLLSPYTKGASLIYRKFLHPLLSSKEREIDDYIVQAKERGYETMVNFGRQGLNLAATAAVTAAVKSQGAITERLRSFSMHDLTTIQGDEPVGQRPYQPLPEAKKKSKPAPSESAGYGIPLKDGDEKTDEEAEGPYSDNEMLTHKGLRRSQSMKSVKTTKGRKEVRYGSLKYKVKKRPQVYF [REEP3]
[1]
  solubility change mitosis (log2): -0.0257
[2]
  solubility in G1/S (log2): -0.258
[3]; cell cycle stage: G1/S
  melting temperature: 52.8 °C
[3]; cell cycle stage: mitosis
  melting temperature: 54.9 °C
[4]; [5]
  thermal stability score: -1.24
[4]; cell cycle stage: mitosis
  thermal stability score: -0.732

## MVVFVGRRLPALLGLFKKKGSAKAENDKHLSVGPGQGPGSAVDEHQDNVFFPSGRPPHLEELHTQAQEGLRSLQHQEKQKLNKGGWDHGDTQSIQSSRTGPDEDNISFCSQTTSYVAESSTAEDALSIRSEMIQRKGSTFRPHDSFPKSGKSGRRRRERRSTVLGLPQHVQKELGLRNEREAPGTPRAPGARDAVRIPTVDGRPRGTSGMGARVSLQALEAEAEAGAETEAMLQRHIDRVYRDDTFVGRSTGTRAPPLTRPMSLAVPGLTGGAGPAEPLSPAMSISPQATYLSKLIPHAVLPPTVDVVALGRCSLRTLSRCSLHSASPASVRSLGRFSSVSSPQPRSRHPSSSSDTWSHSQSSDTIVSDGSTLSSKGGSEGQPESSTASNSVVPPPQGGSGRGSPSGGSTAEASDTLSIRSSGQLSGRSVSLRKLKRPPPPPRRTHSLHQRGLAVPDGPLGLPPKPERKQQPQLPRPPTTGGSEGAGAAPCPPNPANSWVPGLSPGGSRRPPRSPERTLSPSSGYSSQSGTPTLPPKGLAGPPASPGKAQPPKPERVTSLRSPGASVSSSLTSLCSSSSDPAPSDRSGPQILTPLGDRFVIPPHPKVPAPFSPPPSKPRSPNPAAPALAAPAVVPGPVSTTDASPQSPPTPQTTLTPLQESPVISKDQSPPPSPPPSYHPPPPPTKKPEVVVEAPSASETAEEPLQDPNWPPPPPPAPEEQDLSMADFPPPEEAFFSVASPEPAGPSGSPELVSSPAASSSSATALQIQPPGSPDPPPAPPAPAPASSAPGHVAKLPQKEPVGCSKGGGPPREDVGAPLVTPSLLQMVRLRSVGAPGGAPTPALGPSAPQKPLRRALSGRASPVPAPSSGLHAAVRLKACSLAASEGLSSAQPNGPPEAEPRPPQSPASTASFIFSKGSRKLQLERPVSPETQADLQRNLVAELRSISEQRPPQAPKKSPKAPPPVARKPSVGVPPPASPSYPRAEPLTAPPTNGLPHTQDRTKRELAENGGVLQLVGPEEKMGLPGSDSQKELA [KIAA1522]
[1]
  solubility change mitosis (log2): -0.199
[2]
  solubility in G1/S (log2): 0.188
[3]; cell cycle stage: G1/S
  melting temperature: 52 °C
[3]; cell cycle stage: mitosis
  melting temperature: 52.4 °C
[4]; [5]
  thermal stability score: 0.117
[4]; cell cycle stage: mitosis
  thermal stability score: 0.588

## MVVLSVPAEVTVILLDIEGTTTPIAFVKDILFPYIEENVKEYLQTHWEEEECQQDVSLLRKQAEEDAHLDGAVPIPAASGNGVDDLQQMIQAVVDNVCWQMSLDRKTTALKQLQGHMWRAAFTAGRMKAEFFADVVPAVRKWREAGMKVYIYSSGSVEAQKLLFGHSTEGDILELVDGHFDTKIGHKVESESYRKIADSIGCSTNNILFLTDVTREASAAEEADVHVAVVVRPGNAGLTDDEKTYYSLITSFSELYLPSST [ENOPH1]
[1]
  solubility change mitosis (log2): -0.175
[2]
  solubility in G1/S (log2): 0.267
[3]; cell cycle stage: G1/S
  melting temperature: 50.6 °C
[3]; cell cycle stage: mitosis
  melting temperature: 50.7 °C
[4]; [5]
  thermal stability score: 2.1
[4]; cell cycle stage: mitosis
  thermal stability score: 3.35

## MVWPWVAMASRWGPLIGLAPCCLWLLGAVLLMDASARPANHSSTRERVANREENEILPPDHLNGVKLEMDGHLNRGFHQEVFLGKDLGGFDEDAEPRRSRRKLMVIFSKVDVNTDRKISAKEMQRWIMEKTAEHFQEAMEESKTHFRAVDPDGDGHVSWDEYKVKFLASKGHSEKEVADAIRLNEELKVDEETQEVLENLKDRWYQADSPPADLLLTEEEFLSFLHPEHSRGMLRFMVKEIVRDLDQDGDKQLSVPEFISLPVGTVENQQGQDIDDNWVKDRKKEFEELIDSNHDGIVTAEELESYMDPMNEYNALNEAKQMIAVADENQNHHLEPEEVLKYSEFFTGSKLVDYARSVHEEF [SDF4]
[1]
  solubility change mitosis (log2): -0.0276
[2]
  solubility in G1/S (log2): 0.52
[3]; cell cycle stage: G1/S
  melting temperature: 52.8 °C
[3]; cell cycle stage: mitosis
  melting temperature: 53.9 °C
[4]; [5]
  thermal stability score: 2.12
[4]; cell cycle stage: mitosis
  thermal stability score: 3

## MWALCSLLRSAAGRTMSQGRTISQAPARRERPRKDPLRHLRTREKRGPSGCSGGPNTVYLQVVAAGSRDSGAALYVFSEFNRYLFNCGEGVQRLMQEHKLKVARLDNIFLTRMHWSNVGGLSGMILTLKETGLPKCVLSGPPQLEKYLEAIKIFSGPLKGIELAVRPHSAPEYEDETMTVYQIPIHSEQRRGKHQPWQSPERPLSRLSPERSSDSESNENEPHLPHGVSQRRGVRDSSLVVAFICKLHLKRGNFLVLKAKEMGLPVGTAAIAPIIAAVKDGKSITHEGREILAEELCTPPDPGAAFVVVECPDESFIQPICENATFQRYQGKADAPVALVVHMAPASVLVDSRYQQWMERFGPDTQHLVLNENCASVHNLRSHKIQTQLNLIHPDIFPLLTSFRCKKEGPTLSVPMVQGECLLKYQLRPRREWQRDAIITCNPEEFIVEALQLPNFQQSVQEYRRSAQDGPAPAEKRSQYPEIIFLGTGSAIPMKIRNVSATLVNISPDTSLLLDCGEGTFGQLCRHYGDQVDRVLGTLAAVFVSHLHADHHTGLPSILLQRERALASLGKPLHPLLVVAPNQLKAWLQQYHNQCQEVLHHISMIPAKCLQEGAEISSPAVERLISSLLRTCDLEEFQTCLVRHCKHAFGCALVHTSGWKVVYSGDTMPCEALVRMGKDATLLIHEATLEDGLEEEAVEKTHSTTSQAISVGMRMNAEFIMLNHFSQRYAKVPLFSPNFSEKVGVAFDHMKVCFGDFPTMPKLIPPLKALFAGDIEEMEERREKRELRQVRAALLSRELAGGLEDGEPQQKRAHTEEPQAKKVRAQ [ELAC2]
[1]
  solubility change mitosis (log2): -0.0127
[2]
  solubility in G1/S (log2): 0.0837
[3]; cell cycle stage: G1/S
  melting temperature: 56.2 °C
[3]; cell cycle stage: mitosis
  melting temperature: 56.8 °C
[4]; [5]
  thermal stability score: -1.66
[4]; cell cycle stage: mitosis
  thermal stability score: -2.38
